For data set [1], the target named is Fc (huIgG1-Fc fused to the Avi tag) (human). In words: SEC.
The data set “SEC” concerns the molecule itself. As to the kind of experiment: SEC. (In general: SEC sorts molecules by how far they enter the pores of the column.)
In data set [2] the target is DARPin 2B7 fused to the measles virus H protein (DARPin-H). In words: flow cytometry on cells. On the technique in general: In flow cytometry, cells or beads pass a laser one at a time.
The target in data set [3] is DARPin SB4 fused to the measles virus H protein (DARPin-H). As to the kind of experiment: flow cytometry on cells.
Data set [4] addresses four DARPins (SD8, SK14, 2K19, 2B7) and the scFv Fab7. As to the kind of experiment: flow cytometry on cells.

As for “Fc (huIgG1-Fc fused to the Avi tag) (domain or fragment)”, in data set [1], the stoichiometry N (in general, the number of molecules, sites or subunits per partner or assembly) amounted to 2.

B1: GluA4-Fc (amino-terminal domain of GluA4 fused to huIgG1-Fc and an Avi tag) (Fc fusion)
chain: AFPSSVQIGGLFIRNTDQEYTAFRLAIFLHNTSPNASEAPFNLVPHVDNIETANSFAVTNAFCSQYSRGVFAIFGLYDKRSVHTLTSFCSALHISLITPSFPTEGESQFVLQLRPSLRGALLSLLDHYEWNCFVFLYDTDRGYSILQAIMEKAGQNGWHVSAICVENFNDVSYRQLLEELDRRQEKKFVIDCEIERLQNILEQIVSVGKHVKGYHYIIANLGFKDISLERFIHGGANVTGFQLVDFNTPMVTKLMDRWKKLDQREYPGSETPPKYTSALTYDGVLVMAETFRSLRRQKIDISRRGNAGDCLANPAAPWGQGIDMERTLKQVRIQGLTGNVQFDHYGRRVNYTMDVFELKSTGPRKVGYWNDMDKLVLIQD
modifications: biotin on the Avi tag in the biotinylated form (roughly 76% biotinylated)
B1: the “stoichiometry N” value in the data set “SEC” amounted to 4. For the same molecule, the Kd (as a rule, the constant that tells how readily two partners part at equilibrium) is 8.4 nM in data set [2], 19 nM in data set [3] and 1.6 to 3.7 nM in data set [4].

Values taken from publication PMC6077149 (Molecular Therapy. Methods & Clinical Development, 2018).
